Data taken from PMC12707363.

How the values were obtained:
[1] = SEC; analytical SEC (AdvanceBio SEC 200 Å) of the purified Int^N precursor alone; each protein diluted to 10 µM and incubated for 24 h at 15 °C before the run; monomer against soluble high-MW aggregates eluting at the void volume
[2] = SEC; SEC of the Int^N precursors with the native single cysteine (Figure S3c), no reducing agent; conditions not shown

Substance	percent soluble high-MW aggregates [1] [%]	percent aggregated species [2] [%]
MBP‐CP21^N(C43S)‐H6	77	
MBP‐CP21^N‐H6		90
MBP‐GOM^N(C57S)‐H6	76	
MBP‐GOM^N‐H6		78
